According to PMC8837534, “CD147 supports paclitaxel resistance via interacting with RanBP1” (Oncogene, 2022):

Target: T1, RanBP1 protein (full-length, recombinant) (UniProt P43487 1-201)
T1 construct: pMAL-c5x vector; that this removed MBP is inferred; source: E. coli BL21 (DE3), purified (MBPTrap HP, thrombin digestion, Superdex 75); not shown: MBP, N-terminal, cleaved
Test: SPR; ProteOn XPR36, One-shot Kinetics; concentration series of CD147^ICD injected over the immobilized ligand in TBS-T, 50 μL/min for 3 min, dissociation 12 min; constants by ProteOn Manager Software
Details: both partners purified

T1 sequence (P43487 whole entry): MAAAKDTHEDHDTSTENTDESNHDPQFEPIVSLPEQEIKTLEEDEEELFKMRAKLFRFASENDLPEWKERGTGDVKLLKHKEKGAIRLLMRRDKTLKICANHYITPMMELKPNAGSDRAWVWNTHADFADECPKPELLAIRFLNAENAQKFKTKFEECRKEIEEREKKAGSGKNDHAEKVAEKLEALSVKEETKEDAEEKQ

B1: His6-tagged CD147^ICD (intracellular domain of CD147, residues 231-269) (domain or fragment, UniProt P35613-2 231-269, looked up)
chain: KRRKPEDVLDDDDAGSAPLKSSGQHQNDKGKNVRQRNSS
notes: CD147 (basigin), intracellular domain, residues 231-269; One preparation is described (pET21a, 'SUMO-His tag at the C-terminus', SUMO removed by Ulp1); The pull-down names the bait as His6-tagged; source: E. coli BL21 (DE3), purified (HisTrap HP, Ulp1 digestion, Superdex 75); not shown: SUMO, C-terminal, cleaved; His6, C-terminal, kept
Kd: 2250 nM
